Results reported in publication PMC5800599.

Columns and labels:
Experiment in all cases: SPR; Fc immobilised on a CM5 chip by amine coupling (400-1000 RU), mFcγRIV flowed over; Biacore T100; 25°C; 20 mM MOPS, 100 mM sodium chloride, 0.05% P20, 1 μM bovine serum albumin; mean of at least two independent experiments
[1] = target: mouse IgG2c Fc (residues 224-447), truncated (1)GlcNAc N-glycan (mouse)
[2] = target: mouse IgG2c Fc L300I/R326K/A327D, complex-type N-glycan (mouse)
[3] = target: mouse IgG2b Fc I300L/K326R/D327A, truncated (1)GlcNAc N-glycan (mouse)
[4] = target: mouse IgG2c Fc L300I/R326K/A327D, truncated (1)GlcNAc N-glycan (mouse)
[5] = target: mouse IgG2b Fc I300L, truncated (1)GlcNAc N-glycan (mouse)
[6] = target: mouse IgG2c Fc L300I, complex-type N-glycan (mouse)
[7] = target: mouse IgG2b Fc I300L, complex-type N-glycan (mouse)
[8] = target: mouse IgG2b Fc I300L/K326R/D327A, complex-type N-glycan (mouse)
[9] = target: mouse IgG2b Fc, complex-type N-glycan (mouse)
[10] = target: mouse IgG2c Fc (residues 224-447), complex-type N-glycan (mouse)
[11] = target: mouse IgG2c Fc L300I, truncated (1)GlcNAc N-glycan (mouse)
[12] = target: mouse IgG2b Fc, truncated (1)GlcNAc N-glycan (mouse)

B1: mouse Fc γ receptor IV (receptor)
chain: QAGLQKAVVNLDPKWVRVLEEDSVTLRCQGTFSPEDNSIKWFHNESLIPHQDANYVIQSARVKDSGMYRCQTALSTISDPVQLEVHMGWLLLQTTKWLFQEGDPIHLRCHSWQNRPVRKVTYLQNGKGKKYFHENSELLIPKATHNDSGSYFCRGLIGHNNKSSASFRISLGD
Kd [1]: 600 nM | Kd [2]: 9 nM | Kd [3]: 1300 nM | Kd [4]: 1100 nM | Kd [5]: 1800 nM | Kd [6]: 9 nM | Kd [7]: 15 nM | Kd [8]: 8 nM | Kd [9]: 18 nM | Kd [10]: 12 nM | Kd [11]: 1000 nM | Kd [12]: 2800 nM
